# Patent US20090162848A1, “Noxin, a novel stress-induced gene involved in cell cycle and apoptosis” (COLD SPRING HARBOR LABORATORY, priority 2007, published 2009)
# B1: noxin: noxin tagged with the FLAG epitope at its N-terminus, expressed from plasmid pFLAG-noxin (mouse, SEQ ID NO: 2) (protein)
# chain: MNKRRKFLFASVLAVQNSNFIYPSCQRCFSKIILESKRFTCPKCGSSGDTGSTNYRYKLSLKVAESSKLFFITVFGSCLDTFFGLTATGLHRYLEDSIKNLETLDSGRTQSLLTTAVEKCFVGQSFVFGVTNFGDVCGHDSDSSNFQQPCCKHRGEVRTLVASQIILPSPHVKGFTVIAYLHPLLHKKPHCGSQEHSSQSLTSDDSDSDLNNIQGSGNTSWFSESSVGEDFFRYWEPSLELTSSDSQVTSSDDFPASKQIMASGTPNQNRHCISVSEVTSSKNCHDSLQSLWSLHSCMDKNNTTGKLGEELGLPSPVCNSCHESRLSDSHFFPSQMQEPFEEHNLECYSKAEKNDYSQYDIACYQHHEVNTTPILQQRSSAFSLSSLKPEETANPSQNSDSLIWDDLPLSESLNKFLAVVESEVAVTEIDAKNRKQGMDKSIDKCHKNYSRLSLTPWRNTRALNTSCFSLRSSQAMMKDSGKEALFSNCKSNSSPHIQKESKADKTEAAVSIAGSRSDISEDFLPDTCSSALFTSSKDREAFITQKRTSGVLQQRNEISCRPSTSISDCSDLRSRYFTGCGQKLHSGTKGKLAIQNCSKKYSDASDLHKLENKHRWPKKEDDNFTICRKLTYPLETLCSSPESINTSKEMPYRPSNNNLTPSSSGDHEGSYNASAGLFDYIAKDKDIGTEITKIPQDNLLPLEVPCTENYPINENRGQPSQKPSLQSISPSRYSRPRSQSDSECDFEESQDFVPCSQSTPVAGFHQRIHGLNGASKILPSIYSNHNANYKNRKNSPLTGQYQATSACSKNVKAFRQKPESPFVSSLTQANVFNHCPAAESLGNDVDEWVPPTTKKVFISDILGFRVMGLRKCLDLHYSPDPKELPRKKLIKVTHKTNI
# modifications: left off: small tags and cut ends
# How the values were obtained:
# NIH3T3 cells [1] = assay: Cell cycle distribution of pFLAG-noxin transfected cells by flow cytometry; type: cell-based, mouse; conditions: anti-FLAG staining, DNA content
# Experimental: After transfection with pFLAG-noxin or pcDNA3 vector, cell division was arrested with three different treatments (nocodazole, aphidicolin, or low concentration of serum). Cells were stained with anti-FLAG antibody and FITC-conjugated anti-mouse IgG antibody after permeabilization. Cell cycle distributions of untransfected and transfected cells were analyzed by DAPI staining and flow cytometry.
# [2] = tested on: MEFs from p53-deficient mice; assay: DNA synthesis in p53-deficient MEFs expressing noxin; type: cell-based, mouse
# Experimental: Noxin action was also analyzed in p53-deficient MEFs.
# p53 = p53 levels in transfected cells by immunocytochemistry and flow cytometry; type: cell-based
# Experimental: The cells were labeled with […] (BrdU) (10 μM) and incubating for the time periods indicated. The cells were collected from plates by trypsin digestion were suspended in saline and fixed with 70% ethanol. After washing with PBS containing 0.05% BSA, 1×10^6 cells were incubated with FITC-conjugated anti-BrdU antibody (Pharmingen, 1:500) for 1 hr, suspended in PBS-BSA with 5 μg/ml propidium iodide (PI) and 20 μg/ml RNase A, and incubated further for 30 min at room temperature. For the bivariate cell cycle analysis, cells were analyzed using LSRII flow cytometer ([…]). […] Cells were analyzed for PE, FITC, and GFP fluorescence by flow cytometry.
# Cells were transfected with pFLAG-noxin- or GFP-expressing plasmids and the levels of p53 were determined using immunocytochemistry and flow cytometry. […] 13a-c: which were stained with anti-FLAG and anti-p53 primary antibodies and ALEXA Fluor 596- and 488-conjugated secondary antibodies, respectively. […] 14a-d: Cells transfected with pFLAG-noxin (upper panels) and pEGFP (taken as control; lower panels) that were stained with anti-FLAG and anti-p53 primary antibodies, and PE- and FITC-conjugated secondary antibodies. Then Noxin-FLAG- or EGFP-negative (left panels) and positive (right panels) cells were analyzed for the amount of p53 protein.
# NIH3T3 cells [3] = assay: BrdU incorporation (DNA synthesis) in transfected versus untransfected NIH3T3 cells; type: cell-based, mouse; conditions: BrdU labeling for 24 h
# Experimental: In addition, constructs coding for cyan fluorescent protein with a nuclear localization signal (CFP-nuc), yellow fluorescent protein fused to actin (YFP-actin), or vector construct alone were used as controls. Cells were then labeled with BrdU for 24 h and analyzed cells in situ by immunocytochemistry for BrdU and noxin (or other listed proteins) (FIG. 11A-C). In the figures, signals from anti-FLAG antibodies are seen in red; anti-BrdU antibodies are green; Hoechst 33342 (blue) was used for nuclear counter-staining. […] Recombinant protein was detected on a Western blot using the anti-FLAG antibody.
molecule,measurement,setting,value
B1,cell cycle phase of cells expressing the transfected gene,NIH3T3 cells [1],arrested in G1 or early S phase
same,suppression of DNA synthesis,[2],effective
same,p53 levels in cells that received the gene,p53,increased
same,"fraction of BrdU-positive cells in transfected cells, % of the value for the untransfected cells",NIH3T3 cells [3],24%
